# Measurements as given in the supplement of paper PMC9170038.
# System: MS2 coat protein
# Assay: apparent KD of MS2 coat protein; designed switch direction (-1 OFF switch, 1 ON switch): 1; higher = weaker reporter binding
# Outline: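 Designed RNA switches with common flanks were made on Illumina chips by stalled E. coli RNA polymerase. Titration with SNAP-549-labelled MS2 coat protein doubled from 0.7 or 1.5 nM up to 3 µM. Apparent KD is each design's median over clusters after curve-fitting normalised fluorescence.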
# [1] = input ligand: microRNA oligo, concentration not stated
# [2] = Eterna round: R95, input ligand: FMN 200 uM
# [3] = Eterna round: R95, input ligand: microRNA oligo, concentration not stated
# [4] = Eterna round: R95, input ligand: none
Sequence,apparent KD of MS2 coat protein (input ligand: FMN 200 uM) [nM],apparent KD of MS2 coat protein [1] [nM],apparent KD of MS2 coat protein (input ligand: none) [nM],apparent KD of MS2 coat protein [2] [nM],apparent KD of MS2 coat protein [3] [nM],apparent KD of MS2 coat protein [4] [nM]
"AAUUAAGAUCAAGGAUAUCACGUCGAUUAGACGUGAGAAGGUGAUAAUUACAUGAGGAUCACCCAUGUAUAACAUGAAUUAAUU [SSNG1/9-B2] (Eterna round: R96, puzzle: Same State NG 1)",31.8,23.9,33.5,,,
"GAAACAUGACGAGGAUAUGGUACAUGAGGAUCACCCAUGUAUGUACCACGACGCGUACGUCGAAUCCAGAAGGCGUCGUGAAAG [Mat - Same State NG 2 - JL mod - D20] (Eterna round: R96, puzzle: Same State NG 2)",27.8,51.1,86.4,,,
"AGCUAUUAAUCAGGAUAUGGUCACAUGAGGAUCACCCAUGUGUAGAUGAUAAAAUGUGGUCAACACUAGAAGGGAUUGCUAACA [SameState NG2 #61] (Eterna round: R96, puzzle: Same State NG 2)",26.8,25.1,37,,,
"GCGAAGAGGUAAGGAUAUGCAUGGCGGAGACAUGAGGAUCACCCAUGUUGGAGACGAAAUCUAGGGUAGAAGGUACCAGGACGC [AK SSNG2-V2-13] (Eterna round: R96, puzzle: Same State NG 2)",41.5,64.6,72.9,,,
GACCAACAUGAGGAUCACCCAUGUUUCUGAGGCACAGGAUAUCGACAGGCAAGACACCUGCGAGAAGGGUGACCUC [Same State 1 - Mod of Vinnie Diatater v.3] (puzzle: Same State 1),,,,49.2,38.8,30.2
UUUAGUUGCGGGCAGGAUAUGUAUUAAAAUACAUGAGGAUCACCCAUGUACGGGUAUAACACCCGACAGAAGGGCCAAUCGCGAC [Laonerce - 4] (puzzle: Same State 2),,,,16.8,62.6,91.5
"UAAGCAUUCCUAGGAUAUGUAGGAUAUGUACAUGAGGAUCACCCAUGUCUACCAGAGACAGAAGGACAGAAGGAGGAAUGCUUC [pwkr ssNG2 2FMN 1F5s.8] (Eterna round: R96, puzzle: Same State NG 2)",19.1,25.8,36.5,,,
"UGGAGACAUCAAGGAUAUGCUACCGUUUCGGUAGCAGAAGGUGAUCACAUGAGGAUCACCCAUGUAUGCAUGCGUGAGCGUGCU [JL SSNG1 3.53] (Eterna round: R96, puzzle: Same State NG 1)",779,32.7,35.4,,,
ACGCGGGUAUCACAGGAUAUACUCAUAACUACAUGAGGAUCACCCAUGUGGCGGAAUUCCGGUGCGUAGAAGGGUGAUGGACCGC [Artece] (puzzle: Same State 2),,,,19.3,28.5,26.9
GACAAUCUAUCUGAGGAUAUCAUGAAGAAAACAUGAGGAUCACCCAUGUGCAGGAUAACUGCAAAUGAGAAGGCAGAUAGAUUGG [Mat - Same State 2 - Mod - D3] (puzzle: Same State 2),,,,10.9,16.8,20
"GUUUGAUGGUGAGGAUAUGUACAAAGAUAGGGUAUAGAAGGCAUGCGCCGGGAAACCGCGGUACAUGAGGAUCACCCAUGUGUC [Eternabot solution 36] (Eterna round: R96, puzzle: Same State NG 1)",207,54.9,121,,,
"UAUGACUUACAAGGAUAUUAAUGACAUGAGGAUCACCCAUGUGGCUGUGUGUGUUAGAUAAGCUUUAAGAAGGUGUGCGUGUCU [JR_SSNG2_Sub096] (Eterna round: R96, puzzle: Same State NG 2)",361,288,386,,,
"UUUGAAUUGCAAGGAUAUUGAUAACAUGAGGAUCACCCAUGUAAUUGUUCGAGUUAGAUUAGUUACAAGAAGGUGCUAUUGUUU [JR_SSNG2_Sub039] (Eterna round: R96, puzzle: Same State NG 2)",385,165,287,,,
"UGUUGUAUUACAGGAUAUCUAUGAUUUUUGUUUAGAGAAGGGUAUUCACAUGAGGAUCACCCAUGUAUAUACGAGGAAGUUGUG [JMF's solution 66] (Eterna round: R96, puzzle: Same State NG 1)",,42.4,,,,
"GAGGGCGAAAGCAACAUGAGGAUCACCCAUGUCCUCGGAGGGCAGGAUAUCCGGCGGUAGCCGAAGGAGAAGGGUCGGUAAACC [AK SSNG3-V2-33] (Eterna round: R96, puzzle: Same State NG 3)",258,214,184,,,
